The data set can be described thus: protein stability index of a GFP-peptide fusion (yeast GPS) (PSI 1-4); higher = more stable; sorted into four equal gates, so the index is relative within each strain. The essentials:
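For each peptide, the protein stability index sums the read frequency in every gate after multiplying it by the gate number. Read frequencies came from plasmids that were PCR-amplified from each gate and Illumina-sequenced, with reads assigned to strains by barcodes. The gates were four equal bins of GFP/Cherry fluorescence ratio applied to mid-log yeast in leucine-free medium carrying a pooled library of tiled 17-residue yeast protein peptides fused downstream of GFP on a Cherry-expressing plasmid.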

± gives the uncertainty stated by the source.

DVAFLKTAYSIYLSQNE [RPN1]: the protein stability index reads like this: (doa10∆) 2.25 ± 0.052; (pdr5∆) 2.51 ± 0.056; (san1∆) 2.16 ± 0.062; (ubr1∆) 2.64 ± 0.058.
With TGPIEPKARQELPTQLA [RRP46], the protein stability index turned out to be 2.82 ± 0.072 (doa10∆), 2.79 ± 0.074 (pdr5∆), 3.21 ± 0.089 (san1∆) and 3.04 ± 0.056 (ubr1∆).
For VGVHIADVTHFVKPGTA [DIS3], the protein stability index by setting is: (doa10∆) 2.51 ± 0.055; (pdr5∆) 2.14 ± 0.058; (san1∆) 2.9 ± 0.052; (ubr1∆) 2.76 ± 0.063.
For NLKFLKNKDSLVSNPHE [SRB4], the protein stability index is 2.68 ± 0.06 (doa10∆), 2.51 ± 0.076 (pdr5∆), 2.49 ± 0.05 (san1∆) and 2.84 ± 0.049 (ubr1∆).
Turning to NSNPTSNVFGSNNSTTN [YJL041W/NSP1], the protein stability index is, setting by setting: (doa10∆) 3.23 ± 0.079; (pdr5∆) 3.43 ± 0.086; (san1∆) 3.16 ± 0.055; (ubr1∆) 3.46 ± 0.066.
Turning to LRDIGECENEIKTKQMS [SMC2], the protein stability index (doa10∆) was 3.05 ± 0.29, the protein stability index (pdr5∆) came out at 3.29 ± 0.092, the protein stability index (san1∆) was determined as 3.2 ± 0.097 and the protein stability index (ubr1∆) was found to be 3.41 ± 0.12.
Consider DPSISNNIRQAICRYAN [RRP4], for which the protein stability index (doa10∆) was determined as 2.09 ± 0.077, the protein stability index (pdr5∆) worked out at 2.06 ± 0.049, the protein stability index (san1∆) was found to be 1.59 ± 0.11 and the protein stability index (ubr1∆) amounted to 2.43 ± 0.056.
The like results for ISKNPSNGIFYGPSFTK [SIR2] were, in that order, 2.94 ± 0.071, 3.03 ± 0.054, 2.76 ± 0.059 and 3.15 ± 0.039.
The matching figures for ATMENIQKGKFTLLDFK [SRP54]: 2.98 ± 0.068, 3.04 ± 0.081, 2.42 ± 0.089 and 2.96 ± 0.046.
For the sequence GKTTSCTKLAVYYSKRG [SRP54], the protein stability index is 2.76 ± 0.19 (pdr5∆), 2.18 ± 0.22 (san1∆) and 2.51 ± 0.098 (ubr1∆).
On to VAKRRFEYSKYRPLTPS [RRP6], for which the protein stability index is, setting by setting: (doa10∆) 3.27 ± 0.066; (pdr5∆) 3.28 ± 0.084; (san1∆) 3.15 ± 0.035; (ubr1∆) 2.96 ± 0.049.
SSEALEAARICANKYMT [RPL10]: the protein stability index runs as follows: (doa10∆) 1.35 ± 0.13; (pdr5∆) 1.82 ± 0.16; (san1∆) 1.36 ± 0.19; (ubr1∆) 1.29 ± 0.11.
On to VEELMKKRRGSRIYKTI [SNU114], for which the protein stability index reads like this: (doa10∆) 1.86 ± 0.048; (pdr5∆) 1.75 ± 0.053; (san1∆) 1.62 ± 0.088; (ubr1∆) 1.83 ± 0.053.
The matching figures for ASISLAIGYPTLPSVGH [RPP0]: 2.66 ± 0.075, 2.73 ± 0.059, 2.86 ± 0.11 and 2.62 ± 0.049.
On to SPFSITFSVYHESTSRT [YMR129W/POM152], for which the protein stability index was 2.36 ± 0.11 (doa10∆), 2.55 ± 0.062 (pdr5∆), 2.76 ± 0.056 (san1∆) and 2.33 ± 0.06 (ubr1∆).
The like results for DSLIFKDSSLNYSSESY [YJL039C/NUP192] were, in that order, 3.43 ± 0.089, 3.25 ± 0.1, 2.71 ± 0.21 and 3.17 ± 0.14.
As for SRSSSKNVNIEDITEPK [ESC2], the protein stability index was found to be 2.92 ± 0.086 (doa10∆), 3 ± 0.082 (pdr5∆), 2.67 ± 0.086 (san1∆) and 2.98 ± 0.15 (ubr1∆).
The like results for DDFEVNVASLVRVQFQF [GRR1] were, in that order, 2.57 ± 0.059, 1.77 ± 0.089, 1.78 ± 0.18 and 1.5 ± 0.089.
As to EDIIANYASVYPVVEVE [RRP43], the protein stability index (doa10∆) stood at 2.47 ± 0.098, the protein stability index (pdr5∆) worked out at 2.77 ± 0.092, the protein stability index (san1∆) was 2.85 ± 0.14 and the protein stability index (ubr1∆) came to 2.72 ± 0.079.
The matching figures for KDPSPEILVLYNVCDTS [SIN4]: 2.8 ± 0.071, 2.9 ± 0.06, 2.82 ± 0.058 and 2.88 ± 0.12.
Regarding LNLINAKLWFYIYLSHE [RPN3], the protein stability index was 1.43 ± 0.059 (doa10∆), 1.23 ± 0.056 (pdr5∆), 1.28 ± 0.095 (san1∆) and 1.44 ± 0.065 (ubr1∆).
IFNDILAHVDQIVDIRN [YJL039C/NUP192] returned a protein stability index (doa10∆) of 2.83 ± 0.1, a protein stability index (pdr5∆) of 2.64 ± 0.18, a protein stability index (san1∆) of 2.97 ± 0.082 and a protein stability index (ubr1∆) of 2.9 ± 0.076.
As for LKNIMKVSDPYVPTRNT [RPN4], the protein stability index by setting is: (doa10∆) 3.07 ± 0.15; (pdr5∆) 2.67 ± 0.18; (san1∆) 2.78 ± 0.071; (ubr1∆) 2.59 ± 0.11.
Consider DAHKAEQEDIIEKTESV [SWI3], for which the protein stability index (doa10∆) was determined as 3.19 ± 0.086, the protein stability index (pdr5∆) is 3.32 ± 0.1, the protein stability index (san1∆) is 3.38 ± 0.046 and the protein stability index (ubr1∆) was determined as 3.21 ± 0.081.
The matching figures for KAAGLTAAYARTIGIAV [RPL13A]: 1.56 ± 0.077, 1.46 ± 0.059, 1.22 ± 0.11 and 1.38 ± 0.089.
Take LLARVIQMNNSLQNNLQ [SNF11]: the protein stability index (doa10∆) is 3.01 ± 0.11, the protein stability index (pdr5∆) stood at 2.46 ± 0.097, the protein stability index (san1∆) worked out at 2.36 ± 0.084 and the protein stability index (ubr1∆) is 2.06 ± 0.086.

These data come from the supplement of paper PMC9732359.
